Results on 1 protein are retold here after patent US20240100134.

In data set [1] the target is recombinant plasminogen-linker-Fc fusion (human plasminogen, QA linker GQAGQAS, Fc).
For data set [2], the target named is T1, recombinant human plasminogen (not fused to Fc, wild-type).
T1 chain: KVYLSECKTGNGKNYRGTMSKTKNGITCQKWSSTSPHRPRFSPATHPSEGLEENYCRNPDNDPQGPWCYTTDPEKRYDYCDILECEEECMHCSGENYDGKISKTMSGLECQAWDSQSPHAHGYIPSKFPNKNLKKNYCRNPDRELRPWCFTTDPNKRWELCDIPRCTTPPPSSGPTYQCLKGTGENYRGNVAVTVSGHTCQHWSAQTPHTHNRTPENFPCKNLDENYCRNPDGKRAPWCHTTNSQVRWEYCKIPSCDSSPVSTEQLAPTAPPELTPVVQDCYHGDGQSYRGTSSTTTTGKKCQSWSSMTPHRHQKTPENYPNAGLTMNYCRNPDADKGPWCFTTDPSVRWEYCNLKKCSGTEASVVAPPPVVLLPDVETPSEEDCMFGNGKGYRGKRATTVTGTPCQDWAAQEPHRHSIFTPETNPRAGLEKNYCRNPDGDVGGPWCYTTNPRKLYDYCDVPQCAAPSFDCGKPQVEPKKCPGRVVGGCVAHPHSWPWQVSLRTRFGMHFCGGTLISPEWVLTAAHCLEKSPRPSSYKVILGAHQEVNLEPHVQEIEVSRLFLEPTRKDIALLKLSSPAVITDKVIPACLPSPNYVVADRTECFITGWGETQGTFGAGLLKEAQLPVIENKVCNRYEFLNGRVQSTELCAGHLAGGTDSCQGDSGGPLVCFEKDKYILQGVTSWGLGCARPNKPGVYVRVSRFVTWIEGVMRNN

B1: tissue-type plasminogen activator (protein)
chain: SYQVICRDEKTQMIYQQHQSWLRPVLRSNRVEYCWCNSGRAQCHSVPVKSCSEPRCFNGGTCQQALYFSDFVCQCPEGFAGKCCEIDTRATCYEDQGISYRGTWSTAESGAECTNWNSSALAQKPYSGRRPDAIRLGLGNHNYCRNPDRDSKPWCYVFKAGKYSSEFCSTPACSEGNSDCYFGNGSAYRGTHSLTESGASCLPWNSMILIGKVYTAQNPSAQALGLGKHNYCRNPDGDAKPWCHVLKNRRLTWEYCDVPSCSTCGLRQYSQPQFRIKGGLFADIASHPWQAAIFAKHRRSPGERFLCGGILISSCWILSAAHCFQERFPPHHLTVILGRTYRVVPGEEEQKFEVEKYIVHKEFDDDTYDNDIALLQLKSDSSRCAQESSVVRTVCLPPADLQLPDWTECELSGYGKHEALSPFYSERLKEAHVRLYPSSRCTSQHLLNRTVTDNMLCAGDTRSGGPQANLHDACQGDSGGPLVCLNDGRMTLVGIISWGLGCGQKDVPGVYTKVTNYLDWIRDNMRP
For the protein B1, in data set [1], the “Michelis-Menten analysis of activation (KM and Vmax), 10 mM EACA” value is “the kinetics of rPlg and rPlg-Fc activation are similar (as indicated by the KM and Vmax)”; the “activation measured by the hydrolysis of plasmin fluorogenic substrate H-Ala-Phe-Lys-AMC” value was “In the presence of tPA or uPA, comparable hydrolytic activity for rPlg and rPlg-Fc is observed”. Also, in data set [2], the “Michelis-Menten analysis of activation (KM and Vmax), 10 mM EACA” value was “the kinetics of rPlg and rPlg-Fc activation are similar (as indicated by the KM and Vmax)”; the “activation measured by the hydrolysis of plasmin fluorogenic substrate H-Ala-Phe-Lys-AMC” value is “In the presence of tPA or uPA, comparable hydrolytic activity for rPlg and rPlg-Fc is observed”.
